Substitutions are numbered along the chain they refer to. Numbers in names are those of the source.
B1: WHY2, Solanum tuberosum Whirly protein located in the mitochondria (natural protein, Solanum tuberosum (potato))
chain: ADAGKREGRVFAPYSVFKGKAALSAEPRLPTFNRLDSGGVKLNRRGVIMLTFWPSVGERKYDWEKRQLFALSATEVGSLISMGTRDSSEFFHDPSMLSSNAGQVRKSLSIKPNADGSGYFISLSVVNNNLKTNDRFTVPVTTAEFAVMRTAFSFALPHIMGWDRFTNRP
B2: WHY2 K67A (natural protein, Solanum tuberosum (potato))
chain: B1 chain with K20A

How the values were obtained:
[1] = molecular target: the molecule itself; assay: SEC
[2] = molecular target: the molecule itself; assay: atomic force microscopy
[3] = molecular target: the molecule itself; assay: crystal structure

Protein	stoichiometry N [1]	stoichiometry N [2]	stoichiometry N [3]
B1	4	24	
B2	4		24

— article PMC3245945 (Nucleic Acids Research, 2011)
